Reference: patent publication US20230406885A1, “CYCLIC PEPTIDES FOR TRAPPING INTERLEUKIN-1 BETA” (MERCK SHARP & DOHME LLC, priority 2022, published 2023)
*1 amine or outer side, *2 acyl side, *3 side chain or, on linkers, in order; H or OH if unused. [ ]: non-standard residue; d: D form. 3AzaPhe4AcPip = (S)-3-(6-(4-acetylpiperazin-1-yl)pyridin-3-yl)-2-aminopropanoic acid, CC(=O)N1CCN(c2ccc(C[C@H](N[*:1])C(=O)[*:2])cn2)CC1; Trp(4-Cl)(βS-Me) = C[C@@H](c1c[nH]c2cccc(Cl)c12)[C@H](N)C(=O)O; Pro(trans-4-NH2) = O=C([C@@H]1C[C@@H](N[*:3])CN1[*:1])[*:2]; Bip(4'-COOH) = N[C@@H](Cc1ccc(-c2ccc(C(=O)O)cc2)cc1)C(=O)O; 1Nal(3S-Me) = C[C@@H](c1cccc2ccccc12)[C@H](N)C(=O)O; Phe(4-COOH) = N[C@@H](Cc1ccc(C(=O)O)cc1)C(=O)O; h3Pal(5-CN) = N#Cc1cncc(CC[C@H](N)C(=O)O)c1; 1Nal = N[C@@H](Cc1cccc2ccccc12)C(=O)O; hTyr = N[C@@H](CCc1ccc(O)cc1)C(=O)O; 3Pal = N[C@@H](Cc1cccnc1)C(=O)O; 4Pal = N[C@@H](Cc1ccncc1)C(=O)O; dDab = NCC[C@@H](N)C(=O)O; Orn = NCCC[C@H](N)C(=O)O; dNMeA = CN[C@H](C)C(=O)O; Dap = NC[C@H](N)C(=O)O; Aib = CC(C)(N)C(=O)O

B1: SEQ ID NO: 39 (peptide)
peptide: cyclo([Bip(4'-COOH)]W[Phe(4-COOH)]G[Pro(trans-4-NH2)][Trp(4-Cl)(βS-Me)]D[dNMeA]G[Bip(4'-COOH)][4Pal]S[dA][hTyr])
SMILES: C[C@@H]1C(=O)NCC(=O)N[C@@H](Cc2ccc(-c3ccc(C(=O)O)cc3)cc2)C(=O)N[C@@H](Cc2ccncc2)C(=O)N[C@@H](CO)C(=O)N[C@H](C)C(=O)N[C@@H](CCc2ccc(O)cc2)C(=O)N[C@@H](Cc2ccc(-c3ccc(C(=O)O)cc3)cc2)C(=O)N[C@@H](Cc2c[nH]c3ccccc23)C(=O)N[C@@H](Cc2ccc(C(=O)O)cc2)C(=O)NCC(=O)N2C[C@H](N)C[C@H]2C(=O)N[C@@H]([C@@H](C)c2c[nH]c3cccc(Cl)c23)C(=O)N[C@@H](CC(=O)O)C(=O)N1C
B2: SEQ ID NO: 37 (peptide)
peptide: cyclo([Bip(4'-COOH)]W[Phe(4-COOH)]G[Pro(trans-4-NH2)][Trp(4-Cl)(βS-Me)]D[dNMeA]G[Bip(4'-COOH)][1Nal][Orn][Aib]G)
SMILES: C[C@@H]1C(=O)NCC(=O)N[C@@H](Cc2ccc(-c3ccc(C(=O)O)cc3)cc2)C(=O)N[C@@H](Cc2cccc3ccccc23)C(=O)N[C@@H](CCCN)C(=O)NC(C)(C)C(=O)NCC(=O)N[C@@H](Cc2ccc(-c3ccc(C(=O)O)cc3)cc2)C(=O)N[C@@H](Cc2c[nH]c3ccccc23)C(=O)N[C@@H](Cc2ccc(C(=O)O)cc2)C(=O)NCC(=O)N2C[C@H](N)C[C@H]2C(=O)N[C@@H]([C@@H](C)c2c[nH]c3cccc(Cl)c23)C(=O)N[C@@H](CC(=O)O)C(=O)N1C
B3: SEQ ID NO: 30 (peptide)
peptide: cyclo([Bip(4'-COOH)]W[Phe(4-COOH)]G[Pro(trans-4-NH2)][1Nal(3S-Me)]D[dNMeA]G[Bip(4'-COOH)]W[Dap][dA][h3Pal(5-CN)])
SMILES: C[C@@H]1C(=O)NCC(=O)N[C@@H](Cc2ccc(-c3ccc(C(=O)O)cc3)cc2)C(=O)N[C@@H](Cc2c[nH]c3ccccc23)C(=O)N[C@@H](CN)C(=O)N[C@H](C)C(=O)N[C@@H](CCc2cncc(C#N)c2)C(=O)N[C@@H](Cc2ccc(-c3ccc(C(=O)O)cc3)cc2)C(=O)N[C@@H](Cc2c[nH]c3ccccc23)C(=O)N[C@@H](Cc2ccc(C(=O)O)cc2)C(=O)NCC(=O)N2C[C@H](N)C[C@H]2C(=O)N[C@@H]([C@@H](C)c2cccc3ccccc23)C(=O)N[C@@H](CC(=O)O)C(=O)N1C
B4: SEQ ID NO: 3 (peptide)
peptide: cyclo([3AzaPhe4AcPip]W[Phe(4-COOH)]G[Pro(trans-4-NH2)][1Nal(3S-Me)]D[dNMeA]G[Bip(4'-COOH)]KL[dA][hTyr])
SMILES: CC(=O)N1CCN(c2ccc(C[C@@H]3NC(=O)[C@H](CCc4ccc(O)cc4)NC(=O)[C@@H](C)NC(=O)[C@H](CC(C)C)NC(=O)[C@H](CCCCN)NC(=O)[C@H](Cc4ccc(-c5ccc(C(=O)O)cc5)cc4)NC(=O)CNC(=O)[C@@H](C)N(C)C(=O)[C@H](CC(=O)O)NC(=O)[C@H]([C@@H](C)c4cccc5ccccc45)NC(=O)[C@@H]4C[C@@H](N)CN4C(=O)CNC(=O)[C@H](Cc4ccc(C(=O)O)cc4)NC(=O)[C@H](Cc4c[nH]c5ccccc45)NC3=O)cn2)CC1
B5: SEQ ID NO: 31 (peptide)
peptide: cyclo([Bip(4'-COOH)]W[Phe(4-COOH)]G[Pro(trans-4-NH2)][1Nal(3S-Me)]D[dNMeA]G[Bip(4'-COOH)]W[Dap][dA][hTyr])
SMILES: C[C@@H]1C(=O)NCC(=O)N[C@@H](Cc2ccc(-c3ccc(C(=O)O)cc3)cc2)C(=O)N[C@@H](Cc2c[nH]c3ccccc23)C(=O)N[C@@H](CN)C(=O)N[C@H](C)C(=O)N[C@@H](CCc2ccc(O)cc2)C(=O)N[C@@H](Cc2ccc(-c3ccc(C(=O)O)cc3)cc2)C(=O)N[C@@H](Cc2c[nH]c3ccccc23)C(=O)N[C@@H](Cc2ccc(C(=O)O)cc2)C(=O)NCC(=O)N2C[C@H](N)C[C@H]2C(=O)N[C@@H]([C@@H](C)c2cccc3ccccc23)C(=O)N[C@@H](CC(=O)O)C(=O)N1C
B6: SEQ ID NO: 33 (peptide)
peptide: cyclo([Bip(4'-COOH)]W[Phe(4-COOH)]G[Pro(trans-4-NH2)][Trp(4-Cl)(βS-Me)]A[dNMeA]G[Bip(4'-COOH)][1Nal]L[Aib]G)
SMILES: CC(C)C[C@@H]1NC(=O)[C@H](Cc2cccc3ccccc23)NC(=O)[C@H](Cc2ccc(-c3ccc(C(=O)O)cc3)cc2)NC(=O)CNC(=O)[C@@H](C)N(C)C(=O)[C@H](C)NC(=O)[C@H]([C@@H](C)c2c[nH]c3cccc(Cl)c23)NC(=O)[C@@H]2C[C@@H](N)CN2C(=O)CNC(=O)[C@H](Cc2ccc(C(=O)O)cc2)NC(=O)[C@H](Cc2c[nH]c3ccccc23)NC(=O)[C@H](Cc2ccc(-c3ccc(C(=O)O)cc3)cc2)NC(=O)CNC(=O)C(C)(C)NC1=O
B7: SEQ ID NO: 35 (peptide)
peptide: cyclo([Bip(4'-COOH)]W[Phe(4-COOH)]G[Pro(trans-4-NH2)][Trp(4-Cl)(βS-Me)]D[dNMeA]G[Bip(4'-COOH)][1Nal]L[Aib]G)
SMILES: CC(C)C[C@@H]1NC(=O)[C@H](Cc2cccc3ccccc23)NC(=O)[C@H](Cc2ccc(-c3ccc(C(=O)O)cc3)cc2)NC(=O)CNC(=O)[C@@H](C)N(C)C(=O)[C@H](CC(=O)O)NC(=O)[C@H]([C@@H](C)c2c[nH]c3cccc(Cl)c23)NC(=O)[C@@H]2C[C@@H](N)CN2C(=O)CNC(=O)[C@H](Cc2ccc(C(=O)O)cc2)NC(=O)[C@H](Cc2c[nH]c3ccccc23)NC(=O)[C@H](Cc2ccc(-c3ccc(C(=O)O)cc3)cc2)NC(=O)CNC(=O)C(C)(C)NC1=O
B8: SEQ ID NO: 34 (peptide)
peptide: cyclo([Bip(4'-COOH)]W[Phe(4-COOH)]G[Pro(trans-4-NH2)][Trp(4-Cl)(βS-Me)]D[dNMeA]G[Bip(4'-COOH)][1Nal][Dap][Aib][h3Pal(5-CN)])
SMILES: C[C@@H]1C(=O)NCC(=O)N[C@@H](Cc2ccc(-c3ccc(C(=O)O)cc3)cc2)C(=O)N[C@@H](Cc2cccc3ccccc23)C(=O)N[C@@H](CN)C(=O)NC(C)(C)C(=O)N[C@@H](CCc2cncc(C#N)c2)C(=O)N[C@@H](Cc2ccc(-c3ccc(C(=O)O)cc3)cc2)C(=O)N[C@@H](Cc2c[nH]c3ccccc23)C(=O)N[C@@H](Cc2ccc(C(=O)O)cc2)C(=O)NCC(=O)N2C[C@H](N)C[C@H]2C(=O)N[C@@H]([C@@H](C)c2c[nH]c3cccc(Cl)c23)C(=O)N[C@@H](CC(=O)O)C(=O)N1C
B9: SEQ ID NO: 38 (peptide)
peptide: cyclo([Bip(4'-COOH)]W[Phe(4-COOH)]G[Pro(trans-4-NH2)][Trp(4-Cl)(βS-Me)]D[dNMeA]G[Bip(4'-COOH)][3Pal]S[dA][hTyr])
SMILES: C[C@@H]1C(=O)NCC(=O)N[C@@H](Cc2ccc(-c3ccc(C(=O)O)cc3)cc2)C(=O)N[C@@H](Cc2cccnc2)C(=O)N[C@@H](CO)C(=O)N[C@H](C)C(=O)N[C@@H](CCc2ccc(O)cc2)C(=O)N[C@@H](Cc2ccc(-c3ccc(C(=O)O)cc3)cc2)C(=O)N[C@@H](Cc2c[nH]c3ccccc23)C(=O)N[C@@H](Cc2ccc(C(=O)O)cc2)C(=O)NCC(=O)N2C[C@H](N)C[C@H]2C(=O)N[C@@H]([C@@H](C)c2c[nH]c3cccc(Cl)c23)C(=O)N[C@@H](CC(=O)O)C(=O)N1C
B10: SEQ ID NO: 32 (peptide)
peptide: cyclo([Bip(4'-COOH)]W[Phe(4-COOH)]G[Pro(trans-4-NH2)][1Nal(3S-Me)]D[dNMeA]G[Bip(4'-COOH)]WG[dDab][hTyr])
SMILES: C[C@@H]1C(=O)NCC(=O)N[C@@H](Cc2ccc(-c3ccc(C(=O)O)cc3)cc2)C(=O)N[C@@H](Cc2c[nH]c3ccccc23)C(=O)NCC(=O)N[C@H](CCN)C(=O)N[C@@H](CCc2ccc(O)cc2)C(=O)N[C@@H](Cc2ccc(-c3ccc(C(=O)O)cc3)cc2)C(=O)N[C@@H](Cc2c[nH]c3ccccc23)C(=O)N[C@@H](Cc2ccc(C(=O)O)cc2)C(=O)NCC(=O)N2C[C@H](N)C[C@H]2C(=O)N[C@@H]([C@@H](C)c2cccc3ccccc23)C(=O)N[C@@H](CC(=O)O)C(=O)N1C
B11: SEQ ID NO: 4 (peptide)
peptide: cyclo([3AzaPhe4AcPip]W[Phe(4-COOH)]G[Pro(trans-4-NH2)][1Nal(3S-Me)]D[dNMeA]G[Bip(4'-COOH)]W[Dap][dA][h3Pal(5-CN)])
SMILES: CC(=O)N1CCN(c2ccc(C[C@@H]3NC(=O)[C@H](CCc4cncc(C#N)c4)NC(=O)[C@@H](C)NC(=O)[C@H](CN)NC(=O)[C@H](Cc4c[nH]c5ccccc45)NC(=O)[C@H](Cc4ccc(-c5ccc(C(=O)O)cc5)cc4)NC(=O)CNC(=O)[C@@H](C)N(C)C(=O)[C@H](CC(=O)O)NC(=O)[C@H]([C@@H](C)c4cccc5ccccc45)NC(=O)[C@@H]4C[C@@H](N)CN4C(=O)CNC(=O)[C@H](Cc4ccc(C(=O)O)cc4)NC(=O)[C@H](Cc4c[nH]c5ccccc45)NC3=O)cn2)CC1
B12: SEQ ID NO: 36 (peptide)
peptide: cyclo([Bip(4'-COOH)]W[Phe(4-COOH)]G[Pro(trans-4-NH2)][Trp(4-Cl)(βS-Me)]D[dNMeA]G[Bip(4'-COOH)][1Nal]L[Aib][hTyr])
SMILES: CC(C)C[C@@H]1NC(=O)[C@H](Cc2cccc3ccccc23)NC(=O)[C@H](Cc2ccc(-c3ccc(C(=O)O)cc3)cc2)NC(=O)CNC(=O)[C@@H](C)N(C)C(=O)[C@H](CC(=O)O)NC(=O)[C@H]([C@@H](C)c2c[nH]c3cccc(Cl)c23)NC(=O)[C@@H]2C[C@@H](N)CN2C(=O)CNC(=O)[C@H](Cc2ccc(C(=O)O)cc2)NC(=O)[C@H](Cc2c[nH]c3ccccc23)NC(=O)[C@H](Cc2ccc(-c3ccc(C(=O)O)cc3)cc2)NC(=O)[C@H](CCc2ccc(O)cc2)NC(=O)C(C)(C)NC1=O

What follows are binders tested against Recombinant human IL-1β (BioLegend 579404) (human, UniProt P01584 117-269) (assay: cell-based or functional assay).

Point of comparison: B11, “MRC5 IC50” value 0.0438 nM. Against it:
- B1 — 5.3-fold higher, 0.232 nM
- B2 — 2.4-fold higher, 0.103 nM
- B3 — 2.4-fold lower, 0.0185 nM
- B4 — within 1.5-fold, 0.0599 nM
- B5 — 2.1-fold lower, 0.0208 nM
- B6 — 12-fold higher, 0.544 nM
- B7 — 3.7-fold higher, 0.16 nM
- B8 — 1.7-fold higher, 0.0755 nM
- B9 — 5-fold higher, 0.217 nM
- B10 — within 1.5-fold, 0.033 nM
- B12 — within 1.5-fold, 0.0522 nM
